Values quoted from earlier work in US10603364B2, “Lysosomal targeting and uses thereof” (Shire Human Genetic Therapies, Inc., priority 2014, dated 2020).

Tests used:
[1] = biological target: M6P/IGF II receptor (cation-independent mannose-6-phosphate receptor) (Homo sapiens, UniProt P11717)
[2] = biological target: IGF-I receptor (Homo sapiens, UniProt P08069)
IGF-I receptor, sequence (P08069 31-736 limits assumed, species assumed): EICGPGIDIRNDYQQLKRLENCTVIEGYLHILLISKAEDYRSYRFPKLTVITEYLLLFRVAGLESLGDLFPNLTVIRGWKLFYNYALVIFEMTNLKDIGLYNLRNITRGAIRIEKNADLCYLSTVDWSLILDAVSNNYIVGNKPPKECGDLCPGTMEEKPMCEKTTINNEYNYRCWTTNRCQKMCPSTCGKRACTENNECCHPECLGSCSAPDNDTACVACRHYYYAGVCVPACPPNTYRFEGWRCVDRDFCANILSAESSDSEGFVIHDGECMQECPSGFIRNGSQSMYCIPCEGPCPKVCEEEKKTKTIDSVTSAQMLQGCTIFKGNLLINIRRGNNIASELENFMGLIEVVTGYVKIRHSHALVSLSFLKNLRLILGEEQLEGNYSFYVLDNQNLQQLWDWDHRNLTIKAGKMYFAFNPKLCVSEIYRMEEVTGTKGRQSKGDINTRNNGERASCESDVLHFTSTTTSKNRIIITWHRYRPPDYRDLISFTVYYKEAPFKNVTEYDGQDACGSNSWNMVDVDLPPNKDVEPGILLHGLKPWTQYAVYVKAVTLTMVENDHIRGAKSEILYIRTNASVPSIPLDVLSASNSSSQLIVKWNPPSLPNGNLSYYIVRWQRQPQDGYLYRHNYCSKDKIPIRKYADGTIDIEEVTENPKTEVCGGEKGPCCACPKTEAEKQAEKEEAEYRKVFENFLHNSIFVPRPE
IGF-I receptor, sequence (P08069 741-1367 partner limits assumed, species assumed): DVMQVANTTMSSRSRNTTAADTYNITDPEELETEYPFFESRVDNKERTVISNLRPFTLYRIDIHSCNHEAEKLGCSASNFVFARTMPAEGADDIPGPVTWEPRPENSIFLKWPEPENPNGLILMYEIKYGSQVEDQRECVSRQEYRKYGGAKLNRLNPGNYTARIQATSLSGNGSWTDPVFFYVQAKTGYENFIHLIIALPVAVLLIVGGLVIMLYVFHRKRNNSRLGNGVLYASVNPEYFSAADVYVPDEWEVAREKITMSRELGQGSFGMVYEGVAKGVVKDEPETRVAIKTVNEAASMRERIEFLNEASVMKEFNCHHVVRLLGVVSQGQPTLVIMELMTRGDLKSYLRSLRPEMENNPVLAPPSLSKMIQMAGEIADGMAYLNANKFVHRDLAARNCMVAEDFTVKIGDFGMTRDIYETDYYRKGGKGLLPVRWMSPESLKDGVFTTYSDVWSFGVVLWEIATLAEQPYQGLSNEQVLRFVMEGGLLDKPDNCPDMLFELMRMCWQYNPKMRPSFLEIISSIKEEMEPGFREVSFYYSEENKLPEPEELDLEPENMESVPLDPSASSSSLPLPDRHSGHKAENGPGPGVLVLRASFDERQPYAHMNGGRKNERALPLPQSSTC

M6P/IGF II receptor (cation-independent mannose-6-phosphate receptor), sequence (P11717 41-2491): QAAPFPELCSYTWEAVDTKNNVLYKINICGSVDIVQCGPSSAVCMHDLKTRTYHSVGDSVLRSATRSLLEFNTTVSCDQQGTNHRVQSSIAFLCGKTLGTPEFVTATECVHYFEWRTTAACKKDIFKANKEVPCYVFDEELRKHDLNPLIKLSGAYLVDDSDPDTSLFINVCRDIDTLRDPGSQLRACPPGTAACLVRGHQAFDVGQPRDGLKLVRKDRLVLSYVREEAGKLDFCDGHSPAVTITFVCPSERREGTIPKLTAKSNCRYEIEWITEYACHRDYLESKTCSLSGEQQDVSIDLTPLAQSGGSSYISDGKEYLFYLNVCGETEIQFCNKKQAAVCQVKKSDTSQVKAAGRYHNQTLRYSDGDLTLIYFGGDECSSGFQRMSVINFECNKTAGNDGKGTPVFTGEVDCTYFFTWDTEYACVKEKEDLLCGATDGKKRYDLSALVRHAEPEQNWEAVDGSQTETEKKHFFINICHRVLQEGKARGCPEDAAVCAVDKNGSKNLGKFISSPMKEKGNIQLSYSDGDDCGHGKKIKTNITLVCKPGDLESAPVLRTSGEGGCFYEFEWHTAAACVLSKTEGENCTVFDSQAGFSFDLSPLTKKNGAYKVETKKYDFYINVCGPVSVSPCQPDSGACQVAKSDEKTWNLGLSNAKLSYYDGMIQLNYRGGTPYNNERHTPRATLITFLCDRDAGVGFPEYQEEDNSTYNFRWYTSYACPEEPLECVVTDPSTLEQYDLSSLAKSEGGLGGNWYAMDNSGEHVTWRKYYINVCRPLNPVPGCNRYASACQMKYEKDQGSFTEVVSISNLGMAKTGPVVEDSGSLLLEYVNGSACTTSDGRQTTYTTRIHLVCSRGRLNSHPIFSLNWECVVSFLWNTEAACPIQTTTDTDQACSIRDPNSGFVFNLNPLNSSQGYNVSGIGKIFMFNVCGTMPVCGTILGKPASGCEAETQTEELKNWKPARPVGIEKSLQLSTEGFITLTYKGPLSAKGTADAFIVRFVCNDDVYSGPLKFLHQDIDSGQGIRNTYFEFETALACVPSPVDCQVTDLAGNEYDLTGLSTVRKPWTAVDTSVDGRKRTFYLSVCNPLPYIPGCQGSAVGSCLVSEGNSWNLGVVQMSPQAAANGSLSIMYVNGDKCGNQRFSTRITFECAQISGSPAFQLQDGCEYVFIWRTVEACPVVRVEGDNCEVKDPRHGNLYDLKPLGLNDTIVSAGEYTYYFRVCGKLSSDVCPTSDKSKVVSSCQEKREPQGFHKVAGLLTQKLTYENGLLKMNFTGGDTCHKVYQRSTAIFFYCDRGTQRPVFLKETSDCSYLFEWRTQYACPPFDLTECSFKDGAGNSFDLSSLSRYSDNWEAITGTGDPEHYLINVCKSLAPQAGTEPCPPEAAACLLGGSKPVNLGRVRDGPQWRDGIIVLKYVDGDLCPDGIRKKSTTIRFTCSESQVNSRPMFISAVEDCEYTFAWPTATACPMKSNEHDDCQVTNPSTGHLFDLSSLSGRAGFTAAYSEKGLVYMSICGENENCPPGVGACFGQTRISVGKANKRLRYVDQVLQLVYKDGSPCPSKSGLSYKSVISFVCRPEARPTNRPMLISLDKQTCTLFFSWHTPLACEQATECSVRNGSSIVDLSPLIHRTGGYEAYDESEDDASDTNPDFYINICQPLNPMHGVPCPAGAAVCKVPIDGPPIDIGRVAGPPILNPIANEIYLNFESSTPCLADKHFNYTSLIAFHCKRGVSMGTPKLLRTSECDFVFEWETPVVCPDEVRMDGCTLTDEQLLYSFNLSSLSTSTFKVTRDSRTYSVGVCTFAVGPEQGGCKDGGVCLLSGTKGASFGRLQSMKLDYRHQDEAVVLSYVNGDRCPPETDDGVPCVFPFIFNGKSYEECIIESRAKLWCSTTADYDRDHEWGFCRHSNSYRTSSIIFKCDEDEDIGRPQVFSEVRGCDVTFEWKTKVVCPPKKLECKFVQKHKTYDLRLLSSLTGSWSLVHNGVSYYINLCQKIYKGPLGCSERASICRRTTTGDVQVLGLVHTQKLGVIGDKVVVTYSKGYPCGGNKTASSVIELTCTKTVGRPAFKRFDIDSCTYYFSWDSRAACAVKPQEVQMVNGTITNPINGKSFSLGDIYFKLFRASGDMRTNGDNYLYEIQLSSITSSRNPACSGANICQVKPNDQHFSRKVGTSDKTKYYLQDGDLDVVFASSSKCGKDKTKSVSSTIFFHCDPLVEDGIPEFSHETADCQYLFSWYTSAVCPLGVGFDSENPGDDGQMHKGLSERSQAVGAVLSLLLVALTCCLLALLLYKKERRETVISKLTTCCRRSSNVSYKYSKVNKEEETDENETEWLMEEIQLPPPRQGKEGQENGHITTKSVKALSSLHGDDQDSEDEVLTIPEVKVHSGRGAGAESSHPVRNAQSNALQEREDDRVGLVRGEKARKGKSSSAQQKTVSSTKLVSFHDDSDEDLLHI

## IGF-II sequence containing amino acid 8-67: amino acid residues 8-67 of the Insulin-like Growth Factor II peptide sequence, SEQ ID NO:21
[1]
  higher affinity for M6P/IGF II receptor compared to full-length IGF-II: 2-10 fold
[2]
  decrease in ability to bind IGF-I receptor compared to full-length IGF-II: 30 fold
